The text below walks through data of patent US20150239950A1 (SALK INSTITUTE FOR BIOLOGICAL STUDIES, published 2015).

First the molecules themselves.
B5: ActRIIb-ECD (extracellular domain of mouse ActRIIb, residues 1-98) (receptor, UniProt P27040 19-137, looked up)
chain: SGRGEAETRECIYYNANWELERTNQSGLERCEGEQDKRLHCYASWRNSSGTIELVKKGCWLDDFNCYDRQECVATEENPQVYFCCCEGNFCNERFTHLPEPGGPEVTYEPPPTAPTLLT
notes: extracellular domain; also called type II receptor ECD
B6: BMP2/BMP6 heterodimer (ligand)
chain 1: QAKHKQRKRLKSSCKRHPLYVDFSDVGWNDWIVAPPGYHAFYCHGECPFPLADHLNSTNHAIVQTLVNSVNSKIPKACCVPTELSAISMLYLDENEKVVLKNYQDMVVEGCGCR
chain 2: MQQSRNRSTQSQDVARVSSASDYNSSELKTACRKHELYVSFQDLGWQDWIIAPKGYAANYCDGECSFPLNAHMNATNHAIVQTLVHLMNPEYVPKPCCAPTKLNAISVLYFDDNSNVILKKYRNMVVRACGCH
notes: also called B2/B6
B9: BMPRIa-ECD (extracellular domain of human BMPRIa, residues 1-129) (receptor, UniProt P36894 24-152, looked up)
chain: QNLDSMLHGTGMKSDSDQKKSENGVTLAPEDTLPFLKCYCSGHCPDDAINNTCITNGHCFAIIEEDDQGETTLASGCMKYEGSDFQCKDSPKAQLRRTIECCRTNLCNQYLQPTLPPVVIGPFFDGSIR
notes: extracellular domain; also called type I receptor ECD

Read-outs that look alike come from different tables or passages of the source.

Assay [1] has as its target T1, ActRII-ECD (extracellular domain of mouse ActRII, residues 1-102) (mouse, UniProt P27038 20-135).
T1 construct: extracellular domain; also called type II receptor ECD
Briefly: SPR (BIAcore), receptor ECD immobilized, ligand flowed; KD = koff/kon; single trial. As to the method:
(§1) The receptors were immobilized to the chip surface with the ligands flowed over the surface. The data were fit to a kinetic model (1:1 Langmuir binding with mass transfer) in which KD is calculated as koff/kₒₙ. The table reports data from a single trial.
Background: SPR reads the build-up and loss of mass on a sensor chip optically.

Assay [2] concerns the target T1, ActRII-ECD (extracellular domain of …). Briefly: SPR (BIAcore), receptor ECD immobilized, ligand flowed; 1:1 Langmuir with mass transfer; single trial. As to the method: as §1
For assay [3] the target is unchanged. Put plainly: SPR (BIAcore), receptor ECD immobilized.
Assay [4] concerns the target B9. Briefly: SPR (BIAcore), receptor ECD immobilized, ligand flowed; 'No Binding indicates that the interaction was not detectable'. As to the method: as §1
The target in assay [5] is T2, BMP6 homodimer (mature domain of human BMP6, residues 1-132) (human, UniProt P22004 382-513).
T2 sequence: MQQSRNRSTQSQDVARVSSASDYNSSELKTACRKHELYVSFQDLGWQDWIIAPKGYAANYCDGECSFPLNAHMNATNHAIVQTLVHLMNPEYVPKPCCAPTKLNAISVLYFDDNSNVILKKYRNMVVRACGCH
Briefly: SPR, receptor binding affinity.

Assay [6] deals with B6. Briefly: SPR, receptor binding affinity.
In assay [7] the target is T2, BMP6 homodimer (mature domain of human …). Briefly: SPR (BIAcore), receptor ECD immobilized, ligand flowed; KD = koff/kon. As to the method: (§2) The affinity of the ligands to BMPRIa, ActRII, and ActRIIb was monitored by using a Biacore 3000 (GE Healthcare) and the data were analyzed by using BlAevaluation software ver. 4.1 (GE Healthcare). Using primary amine coupling, receptor ECDs were immobilized on a CM5 chip. The receptors were immobilized independently on flow cells 2-4 for 10 minutes at a flow rate of 5 μL/min and a concentration of 20 μM in 10 mM Na acetate, pH 4.0. Flow cell 1 was left blank, no immobilized protein, as a negative control. […] A minimum of five concentrations, plus a zero concentration, were run per sample for kinetic analysis and the data were fit by using a global 1:1 Langmuir binding with mass transfer.
(§3) Ligand affinity data from BIAcore experiments. The BIAcore data is shown as the dissociation rate, koff, and the association rate, kₒₙ, based on a global fit using the kinetic model 1:1 Langmuir binding with mass transfer. The binding constant KD is calculated as koff/kₒₙ. The receptors were immobilized to the chip surface, with the ligands flowed over the surface.

Assay [8] deals with B6. The assay is described as above. As to the method:
as §2, §3

Assay [9] has as its target T2, BMP6 homodimer (mature domain of human …). Briefly: SPR (BIAcore), receptor ECD immobilized, ligand flowed; 1:1 Langmuir with mass transfer. As to the method:
as §2, §3

For assay [10], the target named is T1, ActRII-ECD (extracellular domain of …). Put plainly: native-PAGE receptor ECD saturation assay, 5 µg ActRII-ECD with 10 µg ligand, Coomassie densitometry.
Assay [11] has as its target B5. Put plainly: SPR, receptor binding affinity.
Assay [12] has as its target B5. Briefly: SPR (BIAcore), receptor ECD immobilized, ligand flowed; KD = koff/kon. As to the method:
as §2, §3

The target in assay [13] is T1, ActRII-ECD (extracellular domain of …). Put plainly: SPR (BIAcore), receptor ECD immobilized, ligand flowed; KD = koff/kon; single trial. As to the method:
as §1
This is another data set of the same source.

The target is the same in assay [14]. Put plainly: SPR (BIAcore), receptor ECD immobilized, ligand flowed; 1:1 Langmuir with mass transfer; single trial. As to the method:
as §1
The source holds these as a separate data set.

Assay [15] has as its target Cripto (mouse Cripto construct transfected into HEK293T cells) (mouse) (UniProt P51865). Briefly: cell-based or functional assay.

T1 sequence (P27038 20-135): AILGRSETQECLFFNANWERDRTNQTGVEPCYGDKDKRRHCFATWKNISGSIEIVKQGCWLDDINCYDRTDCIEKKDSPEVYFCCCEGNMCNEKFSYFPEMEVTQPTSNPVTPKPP
Chain of Cripto (mouse Cripto construct transfected into HEK293T cells) (mouse) (P51865 18-134): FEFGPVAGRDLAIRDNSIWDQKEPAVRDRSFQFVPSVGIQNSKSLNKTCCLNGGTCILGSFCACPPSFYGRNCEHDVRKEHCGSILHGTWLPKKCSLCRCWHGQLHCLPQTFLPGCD

B1: AB2-011 (1b2b3b4b5a6a activin/BMP-2 chimera) (ligand)
chain: MQAKHQQRKRLKSSCKRHPLYVDFSDVGWNDWIVAPPGYHAFYCHGECPFPLADHLNSTNHAIVQTLVNSVNSKIPKACCVPTKLRPSMLYYDDGQNIIKKDIQNMIVEECGCS
As for B1, in assay [1], the Kd is 0.525 nM. In assay [2], this molecule displayed a koff of 0.000339 s⁻¹ and a kon of 646000 M⁻¹ s⁻¹.

B2: AB2-015 (1b2a3b4b5b6a activin/BMP-2 chimera) (ligand)
chain: MQAKHKQRKRLKSSCKRHPLYVDFSDVGWNDWIIAPSGYHANYCDGECPFPLADHLNSTNHAIVQTLVNSVNSKIPKACCVPTELSAISMLYYDDGQNIIKKDIQNMIVEECGCS
As for B2, the “fold higher binding against BMP-2” value in [3] is about 100 fold. The Kd in assay [1] worked out at 0.23 nM. In assay [2], this molecule displayed a koff of 0.000371 s⁻¹ and an on-rate (kon) of 1.61e+06 M⁻¹ s⁻¹. Moreover, the binding result in assay [4] is reported as “no binding”.

B3: AB2-004 (1b2a3b4b5a6a activin/BMP-2 chimera) (ligand)
chain: MQAKHKQRKRLKSSCKRHPLYVDFSDVGWNDWIIAPSGYHANYCDGECPFPLADHLNSTNHAIVQTLVNSVNSKIPKACCVPTKLRPMSMLYYDDGQNIIKKDIQNMIVEECGCS
B3 registered a Kd in assay [1] of 0.381 nM. For the same molecule, in [2], the koff is 0.000187 s⁻¹ and the kon was 491000 M⁻¹ s⁻¹.

B4: AB2-012 (1b2b3b4b5b6a activin/BMP-2 chimera) (ligand)
chain: MQAKHKQRKRLKSSCKRHPLYVDFSDVGWNDWIVAPPGYHAFYCHGECPFPLADHLNSTNHAIVQTLVNSVNSKIPKACCVPTELSAISMLYYDDGRNIIKKDIQNMIVEECGCS
For the molecule B4, binding in assay [1] was characterised by a dissociation constant (Kd) of 0.472 nM. In addition, in assay [2], the off-rate constant (koff) stood at 0.0016 s⁻¹ and the kon is 3.39e+06 M⁻¹ s⁻¹.

For B5, the Kd in assay [5] stood at 6.68 nM; in assay [6] it was 6.52 nM; in assay [7], 6.68 nM; in assay [8], 6.52 nM. Further, the values for the koff in assay [5], in assay [6] and in assay [9] were 0.00182 s⁻¹, 0.00861 s⁻¹ and 0.00182 s⁻¹, respectively. Also, the kon in assay [5] turned out to be 273000 M⁻¹ s⁻¹; in assay [6], 1.32e+06 M⁻¹ s⁻¹; in [9], 273000 M⁻¹ s⁻¹.

Regarding B6, in [10], the “fold decrease of the free type II receptor ECD band intensity against receptor ECD alone” value came to 9 fold.

B7: BMP2 homodimer (mature domain of human BMP2) (ligand)
chain: QAKHKQRKRLKSSCKRHPLYVDFSDVGWNDWIVAPPGYHAFYCHGECPFPLADHLNSTNHAIVQTLVNSVNSKIPKACCVPTELSAISMLYLDENEKVVLKNYQDMVVEGCGCR
notes: also called BMP-2wt; BMP-2ma
B7: the Kd in [11] worked out at 38.5 nM; in assay [12], 38.5 nM; in assay [1] it was 36.8 nM.

B8: AB2-008 (1b2a3a4a5a6a activin/BMP-2 chimera) (ligand)
chain: MQAKHKQRKRLKSSCKRHPLYVDFSDVGWNDWIIAPSGYHANYCEGECPSHIAGTSGSSLSFHSTLVNHYRMRGHSPFANLKSCCVPTKLRPMSMLYYDDGQNIIKKDIQNMIVEECGCS
notes: The entry includes the initiator Met
Turning to B8, the “fold weaker affinity against activin-βA” value in assay [3] was about 1.7 fold. The Kd in [13] came to 0.344 nM. In [14], this molecule registered a koff of 0.000824 s⁻¹ and a kon of 2.39e+06 M⁻¹ s⁻¹. In addition, in [4], the binding result is “no binding”.

In the case of B9, the Kd in assay [5] and in assay [7] was 62.8 nM in each case.

B10: Activin-βA (ligand)
chain: GLECDGKVNICCKKQFFVSFKDIGWNDWIIAPSGYHANYCEGECPSHIAGTSGSSLSFHSTVINHYRMRGHSPFANLKSCCVPTKLRPMSMLYYDDGQNIIKKDIQNMIVEECGCS
notes: also called Activin-A
Turning to B10, in [15], the decrease in Smad-2/3 luciferase signaling in HEK293T cells in the presence of Cripto came to 43%. Moreover, the Kd in [13] and in [1] was 0.203 nM throughout. Moreover, the koff in [14] and in assay [2] was 0.000716 s⁻¹ each time. Also, the kon in [14] and in assay [2] was 3.52e+06 M⁻¹ s⁻¹ each time. The binding result in assay [4] is “no binding”.

The Kd is a measure of binding affinity in units of concentration. A word on the koff: it is the first-order rate constant of dissociation. What is called kon is the rate constant with which the complex forms. The low end stands for slow association, the high end for fast association.
